Paper PMC9565801 (Science Advances, 2022)

Target: the molecule itself
Test: crystal structure

B1: ketosteroid isomerase (KSI) Y32F/Y57F from Pseudomonas putida (enzyme)
chain: MNLPTAQEVQGLMARYIELVDVGDIEAIVQMFADDATVEDPFGQPPIHGREQIAAFFRQGLGGGKVRACLTGPVRASHNGCGAMPFRVEMVWNGQPCALDVIDVMRFDEHGRIQTMQAYWSEVNLSVREPQ
- stoichiometry N: 2

B2: ketosteroid isomerase (KSI) Y57F from Pseudomonas putida (enzyme)
chain: MNLPTAQEVQGLMARYIELVDVGDIEAIVQMYADDATVEDPFGQPPIHGREQIAAFFRQGLGGGKVRACLTGPVRASHNGCGAMPFRVEMVWNGQPCALDVIDVMRFDEHGRIQTMQAYWSEVNLSVREPQ
- stoichiometry N: 2
